Measurements from the supplement of paper PMC7877785.
± gives the uncertainty stated by the source.

Test: self-splicing fitness, log relative to wild type (ln ratio); higher = more splicing; Tetrahymena group I intron in knt gene, E. coli kanamycin selection, DiMSum; sequences stand for … in CUCUCU…GGAGGGAAAAGUUAUCAGGCAUGCACCUGGUAGCUAGUCUUUAAACCAAUAGAUUGCAUCGGUUUAAAAGGCAAGACCGUCAAAUUGCGGGAAAGGGGUCAACAGCCGUUCAGUACCAAGUCUCAGGGGAAACUUUGAGAUGGCCUUGCAAAGGGUAUGGUAAUAAGCUGACGGACAUGGUCCUAACCACGCAGCCAAGUCCUAAGUCAACAGAUCUUCUGUUGAUAUGGAUGCAGUUCACAGACUAAAUGUCGGUCGGGGAAGAUGUAUUCUUCUCAUAAGAUAUAGUCGGACCUCUCCUUAAUGGGAGCUAGCGGAUGAAGUGAUGCAACACUGGAGCCGCUGGGAACUAAUUUGUAUGCGAAAGUAUAUUGAUUAGUUUUGGAGUACUCGUGGUCG
How it was run: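 Six replicate transformations of E. coli BL21(DE3) with a pET-22b(+) library were grown overnight at 37°C or 30°C. The library randomised all eight P1ex-region intron nucleotides, the intron lying in the knt kanamycin-resistance gene, and plates were LB agar with or without 25 μg/mL kanamycin plus 100 μg/mL carbenicillin, 50 μM IPTG and 0.2% rhamnose. Pooled colonies were amplicon-sequenced on an Illumina HiSeq 2500, and fitness is the DiMSum error-weighted combination of wild-type-normalised replicate fold changes, kanamycin versus none.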

Sequence: GUCGAGCAAUAUUACGUGUG
- self-splicing fitness (ln) (30 °C): -0.922 ± 0.12
- self-splicing fitness (ln) (37 °C): -0.585 ± 0.17

Sequence: GCAUAGCAAUAUUACGCAGG
- self-splicing fitness (ln) (30 °C): -2.58 ± 0.21
- self-splicing fitness (ln) (37 °C): -1.35 ± 0.22

Sequence: UUAAAGCAAUAUUACGCGCA
- self-splicing fitness (ln) (30 °C): -0.137 ± 0.072
- self-splicing fitness (ln) (37 °C): -0.0874 ± 0.1

Sequence: GGGGAGCAAUAUUACGGGGC
- self-splicing fitness (ln) (30 °C): -2.92 ± 0.37
- self-splicing fitness (ln) (37 °C): -2.2 ± 0.27

Sequence: UCCGAGCAAUAUUACGCUAC
- self-splicing fitness (ln) (30 °C): -2.97 ± 0.38

Sequence: CAUUAGCAAUAUUACGAGUC
- self-splicing fitness (ln) (37 °C): -1.48 ± 0.37

Sequence: UACGAGCAAUAUUACGAGAA
- self-splicing fitness (ln) (30 °C): -2.33 ± 0.35

Sequence: GAUAAGCAAUAUUACGCCCA
- self-splicing fitness (ln) (30 °C): -0.168 ± 0.13
- self-splicing fitness (ln) (37 °C): -0.865 ± 0.14

Sequence: UGAGAGCAAUAUUACGAAUG
- self-splicing fitness (ln) (30 °C): -2.97 ± 0.36
- self-splicing fitness (ln) (37 °C): -1.09 ± 0.46

Sequence: AAUGAGCAAUAUUACGGGUC
- self-splicing fitness (ln) (30 °C): -2.57 ± 0.37

Sequence: CAGCAGCAAUAUUACGAGGU
- self-splicing fitness (ln) (30 °C): -2.8 ± 0.16
- self-splicing fitness (ln) (37 °C): -2.42 ± 0.21

Sequence: UGCGAGCAAUAUUACGUUGU
- self-splicing fitness (ln) (30 °C): -2.79 ± 0.18
- self-splicing fitness (ln) (37 °C): -3.05 ± 0.27

Sequence: GAACAGCAAUAUUACGAUUU
- self-splicing fitness (ln) (30 °C): -0.342 ± 0.05
- self-splicing fitness (ln) (37 °C): -0.476 ± 0.064

Sequence: CUCGAGCAAUAUUACGCCGU
- self-splicing fitness (ln) (37 °C): -1.79 ± 0.26

Sequence: GACCAGCAAUAUUACGGGGG
- self-splicing fitness (ln) (30 °C): -1.92 ± 0.08
- self-splicing fitness (ln) (37 °C): -1.17 ± 0.089

Sequence: GCCGAGCAAUAUUACGGCUU
- self-splicing fitness (ln) (37 °C): -2.08 ± 0.41

Sequence: AAUAAGCAAUAUUACGGUUU
- self-splicing fitness (ln) (30 °C): -0.628 ± 0.064
- self-splicing fitness (ln) (37 °C): -0.165 ± 0.092

Sequence: ACGAAGCAAUAUUACGUAUG
- self-splicing fitness (ln) (30 °C): -1.94 ± 0.14
- self-splicing fitness (ln) (37 °C): -2.7 ± 0.23

Sequence: CCUAAGCAAUAUUACGGUUU
- self-splicing fitness (ln) (30 °C): -4.49 ± 0.34
- self-splicing fitness (ln) (37 °C): -3.07 ± 0.34

Sequence: AAGGAGCAAUAUUACGGUGU
- self-splicing fitness (ln) (30 °C): -3.44 ± 0.24
- self-splicing fitness (ln) (37 °C): -1.77 ± 0.19

Sequence: ACCUAGCAAUAUUACGCCUA
- self-splicing fitness (ln) (30 °C): -2.17 ± 0.3
- self-splicing fitness (ln) (37 °C): -2.38 ± 0.3

Sequence: GCCGAGCAAUAUUACGUACG
- self-splicing fitness (ln) (30 °C): -2.46 ± 0.43
- self-splicing fitness (ln) (37 °C): -1.56 ± 0.26

Sequence: CACAAGCAAUAUUACGAACC
- self-splicing fitness (ln) (30 °C): -2.66 ± 0.47
- self-splicing fitness (ln) (37 °C): -1.98 ± 0.36

Sequence: GCUAAGCAAUAUUACGCGGA
- self-splicing fitness (ln) (30 °C): -2.73 ± 0.2
- self-splicing fitness (ln) (37 °C): -1.1 ± 0.15

Sequence: CGCCAGCAAUAUUACGAUUA
- self-splicing fitness (ln) (30 °C): -2.37 ± 0.15
- self-splicing fitness (ln) (37 °C): -2.68 ± 0.21

Sequence: UAACAGCAAUAUUACGUAAA
- self-splicing fitness (ln) (30 °C): -2.6 ± 0.089
- self-splicing fitness (ln) (37 °C): -0.884 ± 0.084

Sequence: CGGUAGCAAUAUUACGAAAC
- self-splicing fitness (ln) (37 °C): -2.72 ± 0.27

Sequence: AAGGAGCAAUAUUACGAGCG
- self-splicing fitness (ln) (30 °C): -2.53 ± 0.2
- self-splicing fitness (ln) (37 °C): -2.19 ± 0.49

Sequence: ACUAAGCAAUAUUACGGGUG
- self-splicing fitness (ln) (30 °C): -0.981 ± 0.06
- self-splicing fitness (ln) (37 °C): -0.673 ± 0.097

Sequence: GCGCAGCAAUAUUACGGCGU
- self-splicing fitness (ln) (30 °C): -3.18 ± 0.33

Sequence: CAGAAGCAAUAUUACGGUAA
- self-splicing fitness (ln) (30 °C): -3.62 ± 0.25
- self-splicing fitness (ln) (37 °C): -2.49 ± 0.18

Sequence: CGCUAGCAAUAUUACGAGGU
- self-splicing fitness (ln) (30 °C): -3.83 ± 0.31
- self-splicing fitness (ln) (37 °C): -2.58 ± 0.23

Sequence: UAAGAGCAAUAUUACGUUUC
- self-splicing fitness (ln) (30 °C): -3.76 ± 0.26
- self-splicing fitness (ln) (37 °C): -2.51 ± 0.39

Sequence: GGAUAGCAAUAUUACGAUCA
- self-splicing fitness (ln) (30 °C): 0.409 ± 0.12
- self-splicing fitness (ln) (37 °C): 0.227 ± 0.12

Sequence: AGGCAGCAAUAUUACGAAUC
- self-splicing fitness (ln) (30 °C): -2.29 ± 0.29
- self-splicing fitness (ln) (37 °C): -2.07 ± 0.24

Sequence: CGUUAGCAAUAUUACGGUUG
- self-splicing fitness (ln) (30 °C): -0.758 ± 0.11
- self-splicing fitness (ln) (37 °C): 0.388 ± 0.13

Sequence: CAUCAGCAAUAUUACGGAGU
- self-splicing fitness (ln) (30 °C): -2.65 ± 0.12
- self-splicing fitness (ln) (37 °C): -0.842 ± 0.11

Sequence: GGUGAGCAAUAUUACGUAUA
- self-splicing fitness (ln) (30 °C): -3.76 ± 0.29
- self-splicing fitness (ln) (37 °C): -3.25 ± 0.37

Sequence: UGUAAGCAAUAUUACGAGGG
- self-splicing fitness (ln) (30 °C): -3.68 ± 0.27
- self-splicing fitness (ln) (37 °C): -2.14 ± 0.3

Sequence: ACUAAGCAAUAUUACGGGAA
- self-splicing fitness (ln) (30 °C): -2.17 ± 0.11
- self-splicing fitness (ln) (37 °C): -1.75 ± 0.15

Sequence: UUGCAGCAAUAUUACGUAAA
- self-splicing fitness (ln) (30 °C): -1.25 ± 0.095
- self-splicing fitness (ln) (37 °C): -0.427 ± 0.12

Sequence: ACAAAGCAAUAUUACGUAGG
- self-splicing fitness (ln) (30 °C): -2.88 ± 0.1
- self-splicing fitness (ln) (37 °C): -1.55 ± 0.12

Sequence: GACCAGCAAUAUUACGAGAA
- self-splicing fitness (ln) (30 °C): -1.67 ± 0.15
- self-splicing fitness (ln) (37 °C): -1.05 ± 0.15

Sequence: CAAAAGCAAUAUUACGAUGC
- self-splicing fitness (ln) (30 °C): -3.49 ± 0.19
- self-splicing fitness (ln) (37 °C): -2.99 ± 0.32

Sequence: AAUUAGCAAUAUUACGCUCU
- self-splicing fitness (ln) (30 °C): -0.501 ± 0.11
- self-splicing fitness (ln) (37 °C): 0.54 ± 0.15

Sequence: CCGCAGCAAUAUUACGCCUC
- self-splicing fitness (ln) (30 °C): -2.79 ± 0.12
- self-splicing fitness (ln) (37 °C): -2.04 ± 0.14

Sequence: GAGUAGCAAUAUUACGCAAA
- self-splicing fitness (ln) (30 °C): -2.45 ± 0.44
- self-splicing fitness (ln) (37 °C): -1.63 ± 0.22

Sequence: GAUAAGCAAUAUUACGUAAA
- self-splicing fitness (ln) (30 °C): -2.24 ± 0.17
- self-splicing fitness (ln) (37 °C): -1.19 ± 0.17

Sequence: GGUCAGCAAUAUUACGACGC
- self-splicing fitness (ln) (30 °C): -0.817 ± 0.13
- self-splicing fitness (ln) (37 °C): -0.318 ± 0.18

Sequence: CUCAAGCAAUAUUACGGAUU
- self-splicing fitness (ln) (30 °C): -3.66 ± 0.17
- self-splicing fitness (ln) (37 °C): -2.81 ± 0.19
